Here are results for 91 sequences from the supplement of paper PMC9112550, “Optimization of the antimicrobial peptide Bac7 by deep mutational scanning” (BMC Biology, 2022).

This series deals with Escherichia coli TOP10. The experiment in a line: shrunken log2 fold change of peptide-encoding DNA abundance (4.5 h post-induction vs induction); higher = less antimicrobial activity (less host growth inhibition). To be noted: time post-induction: 4.5 h; library: site-saturation at positions 5, 18, 19, 20.
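Note: peptides expressed intracellularly from a pBAD plasmid library in pooled LB shake-flask culture, induced with 0.3% L-arabinose, DNA abundance read by NGS, three biological replicates, DESeq2 with apeglm shrinkage.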

In the case of RRIRERPPRLPRPRPRPQWFPRP, the “shrunken log2 fold change” value is -0.166.
Then RRIRERPPRLPRPRPRPDCFPRP, with 0.316; and RRIRIRPPRLPRPRPRPSTTPRP, with -0.189; and RRIRRRPPRLPRPRPRPSANPRP, with 0.326.
Then RRIRERPPRLPRPRPRPTEWPRP, with -0.551; and RRIRPRPPRLPRPRPRPSAVPRP, with 0.0719; and RRIRLRPPRLPRPRPRPDAKPRP, with 0.0577.
Then RRIRFRPPRLPRPRPRPHQVPRP, with -0.088; and RRIRARPPRLPRPRPRPQYAPRP, with 0.0596; and RRIRRRPPRLPRPRPRPKAEPRP, with 0.0655.
Consider RRIRRRPPRLPRPRPRPNPGPRP, for which the “shrunken log2 fold change” value was -0.035.
Then RRIRWRPPRLPRPRPRPPRIPRP, with 0.245.
Then RRIRWRPPRLPRPRPRPICQPRP, with -0.146; and RRIRDRPPRLPRPRPRPIGHPRP, with 0.012; and RRIRQRPPRLPRPRPRPQFFPRP, with -0.122.
With RRIRLRPPRLPRPRPRPPCGPRP, the “shrunken log2 fold change” value was 0.191.
Then RRIRPRPPRLPRPRPRPSCHPRP, with -0.31; and RRIRRRPPRLPRPRPRPEYNPRP, with -0.103.
RRIRQRPPRLPRPRPRPAPSPRP: the “shrunken log2 fold change” value was determined as 0.492.
Then RRIRFRPPRLPRPRPRPINHPRP, with -0.511.
The same measure for RRIRKRPPRLPRPRPRPKYLPRP: -0.0198; for RRIRERPPRLPRPRPRPESCPRP: -0.0125.
With RRIRSRPPRLPRPRPRPVNMPRP, the “shrunken log2 fold change” value is -0.103.
The same measure for RRIRLRPPRLPRPRPRPDRFPRP: -0.00452; for RRIRTRPPRLPRPRPRPWWPPRP: -0.0247.
The same measure for RRIRKRPPRLPRPRPRPTCPPRP: 0.0404; for RRIRNRPPRLPRPRPRPHRPPRP: 0.128; for RRIRVRPPRLPRPRPRPRCYPRP: -0.31.
The same measure for RRIRERPPRLPRPRPRPDQLPRP: -0.248; for RRIRLRPPRLPRPRPRPFHMPRP: -0.16; for RRIRLRPPRLPRPRPRPVQDPRP: -0.105.
In the case of RRIRCRPPRLPRPRPRPRTMPRP, the “shrunken log2 fold change” value is -0.0155.
The same measure for RRIRKRPPRLPRPRPRPFMDPRP: 0.0834.
Turning to RRIRKRPPRLPRPRPRPAYAPRP, the “shrunken log2 fold change” value was -0.085.
The same measure for RRIRKRPPRLPRPRPRPDTYPRP: -0.0205; for RRIRSRPPRLPRPRPRPCMCPRP: -0.0077.
The same measure for RRIRDRPPRLPRPRPRPMQIPRP: 0.0565; for RRIRMRPPRLPRPRPRPPMWPRP: -0.0434; for RRIRLRPPRLPRPRPRPLWGPRP: 0.151.
The same measure for RRIRDRPPRLPRPRPRPWPPPRP: 0.32; for RRIRFRPPRLPRPRPRPNIPPRP: -0.67; for RRIRHRPPRLPRPRPRPLIEPRP: -0.106.
Consider RRIRYRPPRLPRPRPRPMSMPRP, for which the “shrunken log2 fold change” value is -0.304.
For the sequence RRIRDRPPRLPRPRPRPLPWPRP, the “shrunken log2 fold change” value is 0.572.
Then RRIRDRPPRLPRPRPRPHHFPRP, with -0.49.
On to RRIRWRPPRLPRPRPRPISGPRP, for which the “shrunken log2 fold change” value was -0.12.
Then RRIRGRPPRLPRPRPRPGEPPRP, with 0.276; and RRIRSRPPRLPRPRPRPCFTPRP, with -0.521.
Then RRIRGRPPRLPRPRPRPPTCPRP, with 0.172; and RRIRCRPPRLPRPRPRPSYVPRP, with -0.786; and RRIRQRPPRLPRPRPRPPRLPRP, with 0.287.
The same measure for RRIRFRPPRLPRPRPRPVSKPRP: -0.358; for RRIRLRPPRLPRPRPRPEDAPRP: 0.368.
On to RRIRHRPPRLPRPRPRPWSTPRP, for which the “shrunken log2 fold change” value was -0.0631.
The same measure for RRIRMRPPRLPRPRPRPFAWPRP: 0.139.
The same measure for RRIRYRPPRLPRPRPRPKTVPRP: -1.07; for RRIRGRPPRLPRPRPRPIFCPRP: 0.333.
Then RRIRPRPPRLPRPRPRPCDEPRP, with 0.0442.
Turning to RRIRGRPPRLPRPRPRPCRQPRP, the “shrunken log2 fold change” value is 0.436.
The same measure for RRIRTRPPRLPRPRPRPSCSPRP: -0.16; for RRIRWRPPRLPRPRPRPEICPRP: 0.127; for RRIRLRPPRLPRPRPRPYFWPRP: -0.0237.
The same measure for RRIRSRPPRLPRPRPRPDFDPRP: 0.0818; for RRIRLRPPRLPRPRPRPSTAPRP: -1.05; for RRIRERPPRLPRPRPRPSQLPRP: -0.127.
On to RRIRCRPPRLPRPRPRPLWRPRP, for which the “shrunken log2 fold change” value worked out at 0.397.
The same measure for RRIRSRPPRLPRPRPRPKSSPRP: -0.176; for RRIRMRPPRLPRPRPRPWMDPRP: -0.0276.
For RRIRARPPRLPRPRPRPNQDPRP, the “shrunken log2 fold change” value worked out at 0.116.
Then RRIRMRPPRLPRPRPRPHRCPRP, with 0.15; and RRIRHRPPRLPRPRPRPGMVPRP, with 0.12; and RRIRTRPPRLPRPRPRPGAVPRP, with 0.104.
The same measure for RRIRFRPPRLPRPRPRPCKQPRP: 0.00386.
Then RRIRARPPRLPRPRPRPYYSPRP, with -0.173; and RRIRARPPRLPRPRPRPTCNPRP, with 0.327.
For RRIRWRPPRLPRPRPRPSRTPRP, the “shrunken log2 fold change” value was 0.188.
The same measure for RRIRRRPPRLPRPRPRPDNTPRP: 0.876; for RRIRKRPPRLPRPRPRPKSPPRP: 0.385.
With RRIRDRPPRLPRPRPRPGMLPRP, the “shrunken log2 fold change” value was -0.0263.
Then RRIRIRPPRLPRPRPRPFTPPRP, with -0.875; and RRIRGRPPRLPRPRPRPPPRPRP, with 1.69.
The same measure for RRIRNRPPRLPRPRPRPWGVPRP: 0.112.
The same measure for RRIRHRPPRLPRPRPRPFQYPRP: -0.147.
RRIRNRPPRLPRPRPRPVEEPRP: the “shrunken log2 fold change” value turned out to be 0.0471.
Then RRIRSRPPRLPRPRPRPHGFPRP, with -0.0309.
Then RRIRVRPPRLPRPRPRPFWHPRP, with -0.205; and RRIRFRPPRLPRPRPRPALVPRP, with 0.273; and RRIRDRPPRLPRPRPRPRDHPRP, with 0.0411.
Then RRIRCRPPRLPRPRPRPWAVPRP, with 0.0183.
Turning to RRIRIRPPRLPRPRPRPCRNPRP, the “shrunken log2 fold change” value is -0.604.
In the case of RRIRSRPPRLPRPRPRPPAPPRP, the “shrunken log2 fold change” value stood at 0.906.
